Measured values taken from the supplement of paper PMC12667976.

B1: library; numbered along this chain (parent)
chain: MATDAALRRLLRLHRTEIAVAVDSAFPLLHALADHDVVPEDKFQETLHLKEKEGCPQAFHALLSWLLTQDSTAILDFWRVLFKDYNLERYGRLQPILDSFPKDVDLSQPRKGRKPPAVPKALVPPPRLPTKRKASEEARAAAPAALTPRGTASPGSQLKAKPPKKPESSAEQQRLPLGNGIQTMSASVQRAVAMSSGDVPGARGAVEGILIQQVFESGGSKKCIQVGGEFYTPSKFEDSGSGKNKARSSSGPKPLVRAKGAQGAAPGGGEARLGQQGSVPAPLALPSDPQLHQKNEDECAVCRDGGELICCDGCPRAFHLACLSPPLREIPSGTWRCSSCLQATVQEVQPRAEEPRPQEPPVETPLPPGLRSAGEEVRGPPGEPLAGMDTTLVYKHLPAPPSAAPLPGLDSSALHPLLCVGPEGQQNLAPGARCGVCGDGTDVLRCTHCAAAFHWRCHFPAGTSRPGTGLRCRSCSGDVTPAPVEGVLAPSPARLAPGPAKDDTASHEPALHRDDLESLLSEHTFDGILQWAIQSMARPAAPFPS

Variants of: B1
Assay: AIRE transcriptional activation functional score (insulin promoter-GFP; nonsense median 0, synonymous median 1) (normalised score); higher = higher AIRE activity (more reporter activation)
Conditions: with insulin promoter-GFP reporter in HEK293
Method: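 Deep mutational scan of full-length human AIRE (codon-optimized cDNA, DT-POPCode NNN libraries over three regions) integrated at a Bxb1 landing pad in HEK293 cells carrying an insulin core promoter-GFP reporter at a Flp-In site. Cells were sorted for the top 10% GFP about 14 days after transfection. Variant frequency log-ratios (select vs non-select, TileSeq) were rescaled so that the nonsense median is 0 and the synonymous median is 1, then averaged over biological replicates.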

AIRE transcriptional activation functional score: each site, then its substitutions
Q57: P -0.527 | M -0.643 | V 0.739 | I 0.761 | N -0.0973 | A 1.25 | S 0.217 | C -0.141 | R 0.643 | Y 0.535 | L 1.41 | F 0.269 | W -0.29 | T 0.369 | K 1.12 | H -0.168 | G -0.774 | E 0.685
F43: P 0.556 | C 0.163 | R 0.134 | Y 0.108 | W 0.0722 | H -1.42 | L 0.0431 | V 0.36 | D -0.408 | A -0.325 | T -0.219 | M 0.757 | G 0.413 | S 0.0986 | E -1.08 | Q -0.593 | I -0.197
E53: Y -0.0622 | M 0.544 | H 0.435 | K 1.55 | P -0.371 | N 0.151 | A 1.12 | I 1.49 | R -0.133 | D 0.593 | Q 0.948 | C 1.45 | G -0.0905 | T 1.37 | L 1.14 | W 1.2 | S 0.701 | F 0.611 | V 1.36
L49: D -0.689 | P -0.173 | V 0.492 | W -0.0359 | Q -0.302 | A 0.327 | R 1.04 | N -0.822 | C -0.191 | Y 0.268 | G -0.0766 | M 0.566 | F 0.262 | I -0.275 | T -0.364 | S -0.858 | H -0.538
T46: D -0.445 | E 1.4 | K -3.42 | S 0.455 | V -0.0333 | H 0.478 | A 0.0907 | F -1.2 | G -0.878 | L -0.561 | Y 0.503 | R 0.389 | M 2.55 | N -0.328 | C 0.841 | I 0.403
K50: E 0.64 | N 1.59 | C 0.454 | W 0.149 | M 0.465 | R 0.745 | D 1.78 | H 0.46 | I 0.717 | Y -0.654 | L 0.404 | T 0.51 | A -0.833 | S 2.07 | F -0.139 | P -0.341 | V 0.73 | G 1.42
C55: V 0.628 | F 0.897 | R 0.308 | T 1.49 | Y 0.622 | W -0.244 | Q -0.411 | G -0.175 | D 0.495 | N -0.172 | H 0.145 | A -0.603 | P 0.602 | L -0.0993 | I 1.19 | S -0.196
K42: A -0.323 | W -0.0922 | F 0.0107 | R -0.281 | N 0.98 | I 0.472 | H 0.0173 | S 0.172 | T -0.0654 | G -0.403 | L 0.0963 | V 0.822 | D -1.69 | P -0.0735 | Y -0.464 | C -0.000636 | E -0.598 | Q 0.53 | M 0.538
L47: S 0.462 | T -0.713 | W -0.717 | I -0.62 | C -0.421 | F 0.568 | G 0.313 | K -1.23 | A 0.636 | V 0.302 | R -0.624
K52: T 1.21 | E 0.994 | M 2.46 | W -0.861 | C -0.346 | V 1.38 | I 0.794 | P -0.13 | Q -0.353 | N -0.178 | L 1.11 | G 0.435 | S 0.883 | H -0.455 | D 0.601 | F 0.16 | Y 0.198 | A 1.01 | R 0.664
H48: G 0.181 | Y 1.23 | P -0.897 | C 0.651 | V 1.53 | N 0.738 | L 0.44 | S -0.318 | R 1.64 | Q 1.5 | T 0.372
A58: D 0.158 | G -0.107 | Y -0.204 | C -0.141 | L 0.0439 | M -0.0857 | N -1.13 | F 0.0934 | H -0.263 | E -0.0545 | K -1.14 | Q -0.509 | W 0.0998 | S -0.0331 | R 0.31 | P -0.271 | V 0.221 | I -0.388 | T 0.166
E40: G -0.121 | W -0.133 | L 0.272 | Y -0.301 | H -0.15 | P 0.61 | R -0.956 | I 0.121 | T -0.598 | V 0.0752 | F -0.259 | Q 0.577 | S 0.167 | N -0.324 | K -0.28
F59: H 0.308 | E 0.561 | L 0.0546 | A 0.101 | D 0.139 | G 0.194 | I 0.997 | K 0.387 | M 0.656 | C -0.268
G54: R -0.991 | D 0.773 | Y 0.671 | M 0.663 | C 0.165 | W 0.0658 | Q -0.474 | P -0.123 | N -1.62 | H 0.133 | E 0.772 | F -0.19 | T -1.14 | S -0.808 | I 0.416 | A -0.977 | L -0.0223 | V 0.385
P56: N 0.0217 | W 0.16 | R 0.352 | L -0.0629 | K 1.48 | G 0.501 | E -1.9 | S 0.484 | A 0.549 | F 0.968 | C -0.173 | I 0.82 | H 0.985 | Q 0.746 | Y -0.155 | M -0.903 | T 0.544 | V 0.829 | D -0.102
E51: Q 0.593 | W -0.495 | K 0.391 | F -0.754 | S -0.885 | C -0.0446 | P -0.179 | N -2.61 | D 0.852 | R 0.215 | L 0.248 | V 0.0642 | A 0.128 | H 0.0447 | I -1.54 | T -0.0714 | G 0.279 | M -1.54 | Y -0.775
E45: C -2.39 | Y -0.129 | T -0.232 | A -0.429 | S -0.772 | Q 1.17 | L 0.233 | I -1.78 | W 1.17 | R -0.0981 | V 0.134 | G 0.0251 | K 0.348 | H -0.452 | D 0.278 | F 0.576 | M -1.43
Q44: F 1.98 | D 0.948 | S 0.392 | E -0.441 | I 0.916 | R 0.783 | Y 0.0762 | W 0.23 | N 0.983 | A 0.712 | H -0.545 | V 0.735 | K 1.33 | M -0.749 | P -0.185 | C -0.0407 | T 0.288 | G 0.0554 | L 0.658
D41: W 0.551 | Y 1.79 | C 1.39 | R 0.0782 | A 1.59 | G 0.147 | K -1.32 | L 0.547 | S 0.72 | T 0.827 | P 0.148 | H -1.75 | F 0.468 | I -1.3 | V 0.0716 | N 1.79 | E 1.17
